Test results as given in paper doi:10.1101/2021.01.14.426695.

How the values were obtained:
[1] = target: S-R/PP (SARS-CoV-2 S protein trimer, furin site deleted to a single arginine, two stabilizing prolines) (SARS-CoV-2); assay: negative stain EM
[2] = target: S-R (SARS-CoV-2 S protein trimer, furin site deleted to a single arginine) (SARS-CoV-2); assay: negative stain EM

S-R/PP (SARS-CoV-2 S protein trimer, furin site deleted to a single arginine, two stabilizing prolines)
stoichiometry N [1]: 3

S-R (SARS-CoV-2 S protein trimer, furin site deleted to a single arginine)
stoichiometry N [2]: 3
